Target: T1, D3 fragment of DROSHA (amino acids 390–1365) (human, UniProt Q9NRR4 390-1365)
T1 sequence (looked up): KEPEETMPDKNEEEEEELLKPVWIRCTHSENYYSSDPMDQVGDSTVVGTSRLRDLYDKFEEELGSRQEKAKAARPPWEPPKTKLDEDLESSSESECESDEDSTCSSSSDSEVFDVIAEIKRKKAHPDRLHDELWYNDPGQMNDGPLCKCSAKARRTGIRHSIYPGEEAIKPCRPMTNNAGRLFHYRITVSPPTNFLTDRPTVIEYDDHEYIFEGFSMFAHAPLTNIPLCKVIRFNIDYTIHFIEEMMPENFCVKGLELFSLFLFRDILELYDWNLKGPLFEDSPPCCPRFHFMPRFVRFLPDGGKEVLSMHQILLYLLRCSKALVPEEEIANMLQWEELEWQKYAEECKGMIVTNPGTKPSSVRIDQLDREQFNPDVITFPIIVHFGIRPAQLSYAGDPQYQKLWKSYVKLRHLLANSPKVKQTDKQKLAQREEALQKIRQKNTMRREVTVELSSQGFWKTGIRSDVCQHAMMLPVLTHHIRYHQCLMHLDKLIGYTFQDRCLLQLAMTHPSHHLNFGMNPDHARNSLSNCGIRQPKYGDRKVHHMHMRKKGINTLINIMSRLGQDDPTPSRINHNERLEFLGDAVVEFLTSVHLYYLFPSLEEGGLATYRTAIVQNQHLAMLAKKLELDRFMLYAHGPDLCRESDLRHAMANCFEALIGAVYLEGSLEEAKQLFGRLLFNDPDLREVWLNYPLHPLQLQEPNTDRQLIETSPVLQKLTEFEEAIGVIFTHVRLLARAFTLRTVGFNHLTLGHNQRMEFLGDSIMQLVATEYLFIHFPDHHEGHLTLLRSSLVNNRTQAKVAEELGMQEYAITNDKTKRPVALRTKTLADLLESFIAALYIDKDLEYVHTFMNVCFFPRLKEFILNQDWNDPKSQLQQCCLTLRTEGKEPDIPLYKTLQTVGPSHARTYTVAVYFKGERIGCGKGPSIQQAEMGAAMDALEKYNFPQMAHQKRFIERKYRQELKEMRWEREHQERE
Assay: reconstitution by mixing purified proteins

B1: G4 fragment of DGCR8 (amino acids 285–750), dimeric (domain or fragment, human, UniProt Q8WYQ5 285-750, looked up)
chain: MTKIKTVLKSRGRPPTEPLPDGWIMTFHNSGVPVYLHRESRVVTWSRPYFLGTGSIRKHDPPLSSIPCLHYKKMKDNEEREQSSDLTPSGDVSPVKPLSRSAELEFPLDEPDSMGADPGPPDEKDPLGAEAAPGALGQVKAKVEVCKDESVDLEEFRSYLEKRFDFEQVTVKKFRTWAERRQFNREMKRKQAESERPILPANQKLITLSVQDAPTKKEFVINPNGKSEVCILHEYMQRVLKVRPVYNFFECENPSEPFGASVTIDGVTYGSGTASSKKLAKNKAARATLEILIPDFVKQTSEEKPKDSEELEYFNHISIEDSRVYELTSKAGLLSPYQILHECLKRNHGMGDTSIKFEVVPGKNQKSEYVMACGKHTVRGWCKNKRVGKQLASQKILQLLHPHVKNWGSLLRMYGRESSKMVKQETSDKSVIELQQYAKKNKPNLHILSKLQEEMKRLAEEREETR
**Q.** Does B1 bind?
**A.** Result: binds

Reference: paper PMC10770632 (STAR Protocols, 2023)
